From publication PMC6545606

Assays:
[1] = biological target: K48-linked diubiquitin (Homo sapiens) (UniProt P0CG47); conditions: cited from earlier work
ubiquitin (Homo sapiens) = ubiquitin (Homo sapiens) (UniProt P0CG47); conditions: cited from earlier work
[2] = biological target: K48-linked diubiquitin (ubiquitin_(K48R) joined to ubiquitin_(G76C)), fluorescently labelled (human) (UniProt P0CG47); test: other fluorescence titration
[3] = biological target: K63-linked diubiquitin (ubiquitin_(K63R) joined to ubiquitin_(G76C)), fluorescently labelled (human) (UniProt P0CG47); test: other fluorescence titration
[4] = biological target: ubiquitin_(G76C), fluorescently labelled (human) (UniProt P0CG47); test: other fluorescence titration

Sequence of S5a (P55036 whole entry): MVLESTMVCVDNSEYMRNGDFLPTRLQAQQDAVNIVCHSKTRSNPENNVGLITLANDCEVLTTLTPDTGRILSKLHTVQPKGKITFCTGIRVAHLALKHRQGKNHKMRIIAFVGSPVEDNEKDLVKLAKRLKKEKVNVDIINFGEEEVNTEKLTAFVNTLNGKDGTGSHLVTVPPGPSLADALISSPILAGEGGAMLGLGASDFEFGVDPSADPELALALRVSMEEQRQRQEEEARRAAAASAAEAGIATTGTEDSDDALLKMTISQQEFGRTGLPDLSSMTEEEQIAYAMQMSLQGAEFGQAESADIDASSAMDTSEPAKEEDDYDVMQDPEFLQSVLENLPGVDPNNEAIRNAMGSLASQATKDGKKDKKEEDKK

Substance | Kd [1] | Kd (ubiquitin (Homo sapiens)) | Kd [2] | Kd [3] | Kd [4]
S5a (from UniProt P55036) | 8.9 µM | 73 µM |  |  | 
StoD (S. Typhi outer protein D), full-length, untagged (enzyme) |  |  | 15 µM | 5.6 µM | 55 µM
